Measured values published in patent publication US20180162928A1 (Janssen / Centocor, published 2018).

What was measured:
Assay in all cases: ELISA, lysate on plate-bound antigen
[1] = molecular target: human serum albumin (human) (UniProt P02768)
[2] = molecular target: unrelated Fc-fused recombinant protein
[3] = molecular target: T1, recombinant biotinylated PD-L1 (rhPD-L1/Fc Chimera, R&D Systems 156-B7) (human, UniProt Q9NZQ7 19-238, biotinylated (sites not given))
T1 construct: Bought Fc chimera; also called human PD-L1
T1 sequence (Q9NZQ7 19-238, change not shown): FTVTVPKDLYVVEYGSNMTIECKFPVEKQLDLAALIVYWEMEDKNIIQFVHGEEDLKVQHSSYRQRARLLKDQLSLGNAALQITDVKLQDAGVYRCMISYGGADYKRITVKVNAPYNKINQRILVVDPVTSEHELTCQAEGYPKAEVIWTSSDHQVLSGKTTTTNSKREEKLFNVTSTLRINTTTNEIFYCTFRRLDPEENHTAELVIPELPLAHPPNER
Protocol: Streptavidin-coated Maxisorp plates (Nunc catalog 436110) were blocked for 1 h in Starting Block T20 (Pierce) and then coated with biotinylated PD-L1 (using same antigen as in panning) or negative controls (an unrelated Fc-fused recombinant protein and human serum albumin) for 1 h. Plates were rinsed with TBST and diluted lysate was applied to plates for 1 h. Following additional rinses, wells were treated with HRP-conjugated anti-FN3 domain antibody (PAB25) for 1 h and then assayed with POD (Roche catalog 11582950001).

Chain of human serum albumin (human) (P02768 25-609 limits assumed): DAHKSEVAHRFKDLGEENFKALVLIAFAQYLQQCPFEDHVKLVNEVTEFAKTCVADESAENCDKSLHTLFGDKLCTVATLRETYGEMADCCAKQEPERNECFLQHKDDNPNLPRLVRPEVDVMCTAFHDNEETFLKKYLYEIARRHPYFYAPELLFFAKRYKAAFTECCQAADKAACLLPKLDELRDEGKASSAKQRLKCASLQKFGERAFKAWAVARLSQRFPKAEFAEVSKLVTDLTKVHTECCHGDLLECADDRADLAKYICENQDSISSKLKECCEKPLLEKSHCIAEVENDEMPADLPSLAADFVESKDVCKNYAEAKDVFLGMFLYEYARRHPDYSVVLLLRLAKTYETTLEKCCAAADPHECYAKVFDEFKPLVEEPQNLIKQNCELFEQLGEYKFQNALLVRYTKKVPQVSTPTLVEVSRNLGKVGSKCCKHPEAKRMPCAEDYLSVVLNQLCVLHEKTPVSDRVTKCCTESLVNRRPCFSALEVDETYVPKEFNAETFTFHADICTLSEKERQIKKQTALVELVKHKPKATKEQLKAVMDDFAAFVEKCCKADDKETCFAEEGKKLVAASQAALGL

B1: ISOP121AR5P1H5 (designed binder, not shown: small tags and cut ends)
chain: LPAPKNLVVSRVTEDSARLSWEDAVKHIWFDSFLIQYQESEKVGEAIVLTVPGSERSYDLTGLKPGTEYTVSIYGVWIASVWRSNPLSAIFTT
notes: FN3 domain; E. coli lysate in the ELISA
[1]
  ELISA HSA (RSU): 1120 RSU
[2]
  ELISA Fc Control (RSU): 960 RSU
[3]
  ELISA PD-L1 Fc (RSU): 171000 RSU

B2: ISOP121BR5P1B7 (designed binder, not shown: small tags and cut ends)
chain: LPAPKNLVVSRITEDSARLSWKWEEGFFDSFLIQYQESEKVGEAIVLTVPGSERSYDLTGLKPGTEYTVSIYGVYQRHASAFVSNPLSAIFTT
notes: as for B1
[1]
  ELISA HSA (RSU): 480 RSU
[2]
  ELISA Fc Control (RSU): 640 RSU
[3]
  ELISA PD-L1 Fc (RSU): 11400 RSU

B3: ISOP121FR5P1G11 (designed binder, not shown: small tags and cut ends)
chain: LPAPKNLVVSRVTEDSARLSWTAPDAAFDSFSIWYLEIVAHGEAIVLTVPGSERSYDLTGLKPGTEYEVIIHGVKGCGPSGPLSAIFTT
notes: as for B1
[1]
  ELISA HSA (RSU): 480 RSU
[2]
  ELISA Fc Control (RSU): 880 RSU
[3]
  ELISA PD-L1 Fc (RSU): 18600 RSU

B4: ISOP121BR5P1E9 (designed binder, not shown: small tags and cut ends)
chain: LPAPKNLVVSRVTEDSARLSWDSYRDYFDSFLIQYQESEKVGEAIVLTVPGSERSYDLTGLKPGTEYTVSIYGVYSRKHVVFVQSNPLSAIFTT
notes: as for B1
[1]
  ELISA HSA (RSU): 800 RSU
[2]
  ELISA Fc Control (RSU): 960 RSU
[3]
  ELISA PD-L1 Fc (RSU): 42000 RSU

B5: ISOP194BR9P1F7 (designed binder, not shown: small tags and cut ends)
chain: LPAPKNLVVSRVTEDSARLSWFNADEEYFDSFLIQYQESEKVGEAIVLTVPGSERSYDLTGLKPGTEYTVSIYGVYTRGRYEWRESNPLSAIFTT
notes: as for B1
[1]
  ELISA HSA (RSU): 1760 RSU
[2]
  ELISA Fc Control (RSU): 1920 RSU
[3]
  ELISA PD-L1 Fc (RSU): 1.52e+07 RSU

B6: ISOP194ER9P1E6 (designed binder, not shown: small tags and cut ends)
chain: LPAPKNLVVSRVTEDSARLSWTAPDAAFDSFWIKYYEKRNPGEAIVLTVPGSERSYDLTGLKPGTEYLVIISGVKGGSRSVPLSAIFTT
notes: as for B1
[1]
  ELISA HSA (RSU): 720 RSU
[2]
  ELISA Fc Control (RSU): 240 RSU
[3]
  ELISA PD-L1 Fc (RSU): 8.98e+06 RSU

B7: ISOP121AR5P1F7 (designed binder, not shown: small tags and cut ends)
chain: LPAPKNLVVSRVTEDSARLSWQEHWDTSSNFDSFLIQYQESEKVGEAIVLTVPGSERSYDLTGLKPGTEYTISIYGVYNRKVLFYSNPLSAIFTT
notes: as for B1
[1]
  ELISA HSA (RSU): 1040 RSU
[2]
  ELISA Fc Control (RSU): 720 RSU
[3]
  ELISA PD-L1 Fc (RSU): 64000 RSU

B8: ISOP194GR9P1F9 (designed binder, not shown: small tags and cut ends)
chain: LPAPKNLVVSRVTEDSARLSWTAPDAAFDSFWIFYNERWQNGEAIRLIVPGSERSYDLTGLKPGTEYSVIIPGVKGGRNSFPLWAWFTT
notes: as for B1
[1]
  ELISA HSA (RSU): 800 RSU
[2]
  ELISA Fc Control (RSU): 320 RSU
[3]
  ELISA PD-L1 Fc (RSU): 105000 RSU

B9: ISOP121GR5P1A2 (designed binder, not shown: small tags and cut ends)
chain: LPAPKNLVVSRVTEDSARLSWTAPDAAFDSFKIQYIERYIPGEAIQLNVPGSERSYDLTGLKPGTEYSVIIPGVKGGRNSFPLWAWFTT
notes: as for B1
[1]
  ELISA HSA (RSU): 720 RSU
[2]
  ELISA Fc Control (RSU): 720 RSU
[3]
  ELISA PD-L1 Fc (RSU): 61700 RSU

B10: ISOP121AR5P1F9 (designed binder, not shown: small tags and cut ends)
chain: LPAPKNLVVSRVTEDSARLSWGWSELIATHFDSFLIQYQESEKVGEAIVLTVPGSERSYDLTGLKPGTEYTVSIYGVYNRKVNFYSNPLSAIFTT
notes: as for B1
[1]
  ELISA HSA (RSU): 1040 RSU
[2]
  ELISA Fc Control (RSU): 1120 RSU
[3]
  ELISA PD-L1 Fc (RSU): 136000 RSU

B11: ISOP194AR9P1H1 (designed binder, not shown: small tags and cut ends)
chain: LPAPKNLVVSRVTEDSARLSWWRVLGHSHFFDSFLIQYQESEKVGEAIVLTVPGSERSYDLTGLKPGTEYTVSIYGVYNRKVNFYSNPLSAIFTT
notes: as for B1
[1]
  ELISA HSA (RSU): 6800 RSU
[2]
  ELISA Fc Control (RSU): 15700 RSU
[3]
  ELISA PD-L1 Fc (RSU): 2.14e+07 RSU

B12: ISOP121AR5P1F2 (designed binder, not shown: small tags and cut ends)
chain: LPAPKNLVISRVTEDSARLSWGWSELIATHFDSFLIQYQESEKVGEAIVLTVPGSERSYDLTGLKPGTEYTVSIYGVYNRKVNFYSNPLSAIFTT
notes: as for B1
[1]
  ELISA HSA (RSU): 960 RSU
[2]
  ELISA Fc Control (RSU): 880 RSU
[3]
  ELISA PD-L1 Fc (RSU): 51000 RSU

B13: ISOP121AR5P1E7 (designed binder, not shown: small tags and cut ends)
chain: LPAPKNLVVSRVTEDSARLSWHVYHEIDYFDSFLIQYQESEKVGEAIVLTVPGSERSYDLTGLKPGTEYTVSIYGVYQRKVEFYSNPLSAIFTT
notes: as for B1
[1]
  ELISA HSA (RSU): 6560 RSU
[2]
  ELISA Fc Control (RSU): 4240 RSU
[3]
  ELISA PD-L1 Fc (RSU): 327000 RSU

B14: ISOP194AR9P1D11 (designed binder, not shown: small tags and cut ends)
chain: LPAPKNLVVSRVTEDSGRLSWQHHISFFDSFLIQYQESEKVGEAIVLTVPGSERSYDLTGLKPGTEYTVSIYGVYNRKVNFYSNPLSAIFTT
notes: as for B1
[1]
  ELISA HSA (RSU): 12700 RSU
[2]
  ELISA Fc Control (RSU): 28200 RSU
[3]
  ELISA PD-L1 Fc (RSU): 1.04e+06 RSU

B15: ISOP194AR9P1H3 (designed binder, not shown: small tags and cut ends)
chain: LPAPKNLVVSRVTEDSARLSWNASWISHNFFDSFLIQYQESEKVGEAIVLTVPGSERSYDLTGLKPGTEYTVSIYGVYERKTAFYSNPLSAIFTT
notes: as for B1
[1]
  ELISA HSA (RSU): 4880 RSU
[2]
  ELISA Fc Control (RSU): 9200 RSU
[3]
  ELISA PD-L1 Fc (RSU): 1.77e+07 RSU

B16: ISOP194HR9P1B10 (designed binder, not shown: small tags and cut ends)
chain: LPAPKNLVVSRVTEDSARLSWTAPDAAFDSFPIRYYERANGEAIVLTVPGSERSYDLTGLKPGTEYIVWIYGVKGGGRSGPLSAIFTT
notes: as for B1
[1]
  ELISA HSA (RSU): 1840 RSU
[2]
  ELISA Fc Control (RSU): 560 RSU
[3]
  ELISA PD-L1 Fc (RSU): 385000 RSU

B17: ISOP121HR5P1H2 (designed binder, not shown: small tags and cut ends)
chain: LPAPKNLVVSRVTEDSARLSWTAPDAAFDSFDIYYLEYDYSGEAIVLTVPGSERSYDLTGLKPGTEYDVLIIGVKGGSLSTPLSAIFTT
notes: as for B1
[1]
  ELISA HSA (RSU): 560 RSU
[2]
  ELISA Fc Control (RSU): 720 RSU
[3]
  ELISA PD-L1 Fc (RSU): 21000 RSU

B18: ISOP121BR5P1H6 (designed binder, not shown: small tags and cut ends)
chain: LPAPKNLVVSRVTEDSARLSWGYIDVSYFDSFLIQYQESEKVGEAIVLTVPGSERSYDLTGLKPGTEYTVSIYGVYSRPKAEFTSNPLSAIFTT
notes: as for B1
[1]
  ELISA HSA (RSU): 1040 RSU
[2]
  ELISA Fc Control (RSU): 1440 RSU
[3]
  ELISA PD-L1 Fc (RSU): 74600 RSU

B19: ISOP121BR5P1D3 (designed binder, not shown: small tags and cut ends)
chain: LPAPKNLVVSRVTEDSARLSWYEDNTERFDSFLIQYQESEKVGEAIVLTVPGSERSYDLTGLKPGTEYTVSIYGVYIRVQVLWFSNPLSAIFTT
notes: as for B1
[1]
  ELISA HSA (RSU): 800 RSU
[2]
  ELISA Fc Control (RSU): 800 RSU
[3]
  ELISA PD-L1 Fc (RSU): 75800 RSU

B20: ISOP194BR9P1D10 (designed binder, not shown: small tags and cut ends)
chain: LPAPKNLVVSRVTEDSARLSWYEDNTERFDSFLIQYQESEKVVEAIVLTVPGSERSYDLTGLKPGTEYTVSIYGVYIRVQVLWFSNPLSAIFTT
notes: as for B1
[1]
  ELISA HSA (RSU): 1120 RSU
[2]
  ELISA Fc Control (RSU): 720 RSU
[3]
  ELISA PD-L1 Fc (RSU): 1.67e+06 RSU

B21: ISOP194AR9P1C5 (designed binder, not shown: small tags and cut ends)
chain: LPAPKNLVVSRVTEDSARLSWLRDFNGRAFFDSFLIQYQESEKVGEAIVLTVPGSERSYDPTGLKPGTEYTVSIYGVFITWIHVRSNPLSAIFTT
notes: as for B1
[1]
  ELISA HSA (RSU): 1040 RSU
[2]
  ELISA Fc Control (RSU): 3440 RSU
[3]
  ELISA PD-L1 Fc (RSU): 4.37e+06 RSU

B22: ISOP121FR5P1G1 (designed binder, not shown: small tags and cut ends)
chain: LPAPKNLVVSRVTEDSARLSWTAPDAAFDSFWIHYTEAPVHGEAIVLTVPGSERSYDLTGLKPGTEYTVVIWGVKGGTWSSPLSAIFTT
notes: as for B1
[1]
  ELISA HSA (RSU): 400 RSU
[2]
  ELISA Fc Control (RSU): 640 RSU
[3]
  ELISA PD-L1 Fc (RSU): 10000 RSU

B23: ISOP121BR5P1G2 (designed binder, not shown: small tags and cut ends)
chain: LPAPKNLVVSRVTEDSARLSWADELHHANHFDSFLIQYQESEKVGEAIVLTVPGSERSYDLTGLKPGTEYTVSIYGVYDRHYEIHFYSNPLSAIFTT
notes: as for B1
[1]
  ELISA HSA (RSU): 560 RSU
[2]
  ELISA Fc Control (RSU): 800 RSU
[3]
  ELISA PD-L1 Fc (RSU): 16700 RSU

B24: ISOP121GR5P1F6 (designed binder, not shown: small tags and cut ends)
chain: LPAPKNLVVSRVTEDSARLSWTAPDAAFDSFDIRYHEYTWPGEAIVLLVPGSERSYDLTGLKPGTEYGVYINGVKGGFRSKPLFAWFTTGG
notes: as for B1
[1]
  ELISA HSA (RSU): 640 RSU
[2]
  ELISA Fc Control (RSU): 640 RSU
[3]
  ELISA PD-L1 Fc (RSU): 32100 RSU

B25: ISOP194GR9P1F6 (designed binder, not shown: small tags and cut ends)
chain: LPAPKNLVVSRVTEDSARLSWTAPDAAFDSFWIDYWERLSEGEAIALRVPGSERSYDLTGLKPGTEYYVWIVGVKGGKFSQPLRAWFTT
notes: as for B1
[1]
  ELISA HSA (RSU): 1200 RSU
[2]
  ELISA Fc Control (RSU): 400 RSU
[3]
  ELISA PD-L1 Fc (RSU): 319000 RSU

B26: ISOP121BR5P1F7 (designed binder, not shown: small tags and cut ends)
chain: LPAPKNLVVSRVTEDSARLSWHDATWQYFDSFLIQYQESEKVGEAIVLTVPGSERSYDLTGLKPGTEYTVSIYGVFHRKHIDFVSNPLSAIFTT
notes: as for B1
[1]
  ELISA HSA (RSU): 880 RSU
[2]
  ELISA Fc Control (RSU): 720 RSU
[3]
  ELISA PD-L1 Fc (RSU): 12900 RSU
